From the DeepSol protein solubility set

Assay: soluble on expression in E. coli; label from the status in PepcDB or PDB records

Sequence | soluble on expression in E. coli
GPGSMQRHRTPEPGPRGASSQNPRRPPQTSAKSPARRVSRRSSAATTSAPGGIELTRAQQIEAKAARDAVVGAMTKSSPQAAKMFVESISLDVDVETTRQLLCSKKGFVALPSSIGVLCRQLRKLDLSGNGLTDLSPLATLQHLSNLNVAHNGLLASLKGLSGTCLSVLNISFCAVESLEGLEHTALTLRTFIANDNRLQLHSPLLADVVATAGEDAAEMEAAREHLPESLCRSSSHSGADLRAVAQRNYAIFSTFQQCETVVLSRNTRLCQLFPTWGVEEVAAECGEVPGRSSAAADDEGSDDAADGASTTMSADGDGGDSANRGKKHRASAAKRRDRRRIAVHPTDRSASNTPAAAREPFGDSPEMATYNQRRHALALAHPLSVFERLSRLRKLSLSGCELHSLPVRWFLPMVTELRLAQNHLTSLQPDGVILRSLHILDISNNLFASVASLRRCRYLEQLNVRGNPLIEEGVLQDKAAGLTTAERIADVAATTPSSGTSAAPIAVQQRLLRLFPNMKLLDGQPMMTAGQVRSAYMQRNARSAAERQDKLTEKGCSDGSAIVASLHEARDDVGNAHAASDDSERGSSSGDAPRTAPTARAEARSPARKARRADSAVIAAEADEKDNVVEAPLSVVKTAHAQIVRRERVLLRPGAAAASGSNTGAAGQKRKAGQTPTSPAAVVYGQAAVAKLLEQSRSRSAW | not soluble
GPGSMQVINENSLREFYAHVYPVELVTQWLSYRLSQPRLSAGSSVAVVKGEPTAVSGEESKDGVRHVLGIKAEPCDAVGAAAGADDEDKEWLNGKGAAAAEGYLARREFCFTLIGDIFTRFRSYRSSEELRAELVRCFPEKIDVGAVYNIRPNQKQGLANVFPVERELVFDIDMSDYDNVRSCCSGKSICSYCWAWMSCAAHVLHTVLRDDFGFKYILPVFSGRRGIHLWVCDRRARRMTNDERTALVGYLTVVAPKTLRSTIVADLANHRLIHPTIRHVLRTQLDRAFTSLFVASSSDNPNNIQHHPTAAYIVHDATSAVLKLGRRDALNRFQQHVHFQQGNVLDWATYLRALGSEQEATDILHAVQLLLMYPRLDEHVSTRRDHLLKLPFCVHPGTASLCCPLEWDEVDGFHPTEDAPKLHEMLLSRSLDVRWTLPLERMLKDMRTDEDENSS | not soluble
GPGSMRSVIRSCVIFPAAGVAMRHDSSQQWVLNVMYGTGLAPRYGSWKSFGVGDALKENDTPVLYCKALVHASGGGRRARDWVAGCSAALFPSYELLKIAMRHNSSEEDVERYRRHLVETLEKAQGPQTGSANDAGNVTSGEDGSKSDTENDTDINMRLSQMPEVRCFVYDAMRAACFHRYKKVPEEQRVKLFTVAARLGLDEGTTMAIWRLVEKEGIVARDKQRALESPWND | soluble
GPGSMSAHSAARRWTNLAGIGSCHPRHHHYPTSTKEVQDAVELVRSQNGKCRVAGAGKSPNTATFTNEHLIHMERMNRILSIDTVAHTITCEAGAVMEEVMRSVDKVGLMVRCVPSYVRTTVGGCIATATHSSGIQCHCLSDYVRGLKIVDGCAQIRTLVAGKDDAELRLAACHLGVMGIVTEVTLEVQPRIQWKLVSQPLLMKDATNAALVAEKVKSTEYYRWWWVPHTDGCYESYGRVESTTGISALPPLPDALTAQDDAPVQLSPAALQEESRTNESAERAGDRSISLIVKSALKYIATDFVRHQVVECSLYAACLCPAIQPYVNKAYRRAFFSAPQVQRGSALECFTFDCLFKQWANEWAIDASRAVEAFNRLRDMIDREGMLLHFPVEFRFTAPDVSDMSPAVGRPTCWIGVVMYRPYGQEARDTRRCYDGFCRVMEEMGGRPHWAKYYDWGHREITATYGDHWERFLALRRRMDPDDIFVNGWFRNLMSPDRVNSTACTP | not soluble
GPGSMSATDASITGAEAAPASPGTSPAATGPASTAAVTAYTVGIDIGSATTRVAVMDPAKLMPTIIRNALGNEATSTVVSFAANEARSFGENAAARQVTKASETIVDLAPWIFGYTSGEQVPKDTAVSLQVVSPATAMTEACVLKSRQLGAQEHLTHPAQVAAFYIKSLLQLLPEKGMIRTSPVCLAVPSAAYAASFEALRQATLLAGVPQEQTIIAHSDEATAVYFHHLQYSGLPAKHDGAAVPVVLIDIGQSCSVASLIMASQPRVEKVDCQTLRMGSEYIDALLCSHVYSELGKKFGAAADPLRGDIKSFRKILRECRKAKEVLSTTDETQVQLEGLSGDIDIIVSVTRAMMEQAALPFLQAVRAMLTAIKEKLPVPSATEDGSQAAAVPPRVEVIGGGWRSVCVMEAIREVFGITRVGVSLDANLSVAEGSAILAEVRQLTIARQQDEEQTAQATTASSVAEAHQVELIGFEVLDANSPINRPLSEAGVRAVTEWIMLEKQMEDSDARIHERLAALNRLDSYILQTLAAVDNCAASSEKKTEMRAYIEEVDAYVRSEGDEASSVELNEKLAAVQAHVTEHFSEIEAYYESVRAEEKRKEEELVKLSKERQEDESDLKSDPQRLRMAQKRREQGQGLFREECWAEAQTRFVQALSILGQLYDTSSEENKTKKREISLSCYLNIASCSVKLGLWKNAVNNCTNALELVPDHPKALFRRGQAYSALKEYEEAVTDLEKAKAVSQDDPVVVAELNKAKAALGAEKAKTKKMFAKMFS | soluble
GPGSMSCEVTMVGRDRDYLHDVQYGSRTFRLADRRIRAPSGLTVRAVDAEPIKDDVGVDAVLSCVPATCLENDGAHTPPMVRCAQNHADAPMLLFTRGFTREGLTPLEQLGRVSQDLPSKLVVVSGPLFAREWAVTSAAACDGGDANRNSGVTLSFALGGKADVELSRSLQSLTERLWRRESVTWLDGPLAAEILSLVNGCVPLCSMGAGLVSSEYPGSVSATMSYLQHATSATEQLVNGVLGLPLGSPLPSCAVATIAMACTNHAAREFVFGRRLDYHFRHRDAIRAVFPAGSHEALDSTVSGLHMLLRRHAMSSPFYEVLMDTFLTLMRASVAGRELVRLGHYEYRHKLRDEDTVLLRHTEVVDEAMLSGDHQRFDDARRALQMAFGDSSCGAPTMPPL | not soluble
GPGSMSKQKNVEINYDEVDETTGFKAAEMFVWLKFEESYLQKPEDEREADVDAWADTFCEEMEGEGMNYDRNFVRSVCTLGIYAGLRDEFQQRTGSGKAIYANGDRYDGEFFEGKKHGRGRYIFVSLGKSECDRIVEKELQKLGDVVAGENFVKAVADRYKIGCHIISYIIEYGFHPCYHGDYVRGKRVGRGLMKNKDGTVYKGEFLENKREGRGMFFYLNGDIYSGNWKNGRKHGYGTYHFVGGNEYRGMWNDGVFTHGQWIFPDGVYYEGHFNKKNRPCDEAASMHYPALKMAQTGTFKRGTWAPTSALEVCEETPVDGMTWTD | soluble
GPGSMSLEGKVALITGAGSGFGEGMAKRFAKGGAKVVIVDRDKAGAERVAGEIGDAALAVAADISKEADVDAAVEAALSKFGKVDILVNNAGIGHKPQNAELVEPEEFDRIVGVNVRGVYLMTSKLIPHFKENGAKGQECVILNVASTGAGRPRPNLAWYNATKGWVVSVTKALAIELAPAKIRVVALNPVAGETPLLTTFMGEDSEEIRKKFRDSIPMGRLLKPDDLAEAAAFLCSPQASMITGVALDVDGGRSIGGRSI | soluble
GPGSMSTSEGNAANRFAGRVKQAEDPFVKALRIKVNGLKRNMKDLEFAKKEVVCETARLESIRDTNPDRVKQQENVIAEAQMMIPHSENRVRAAIKDLQDFLDTHENDAEEGELMQDARTTLESAQLTLSKQ | soluble
GPGSMTGRTSSVSENHLGFSAEGGVVNYALLQPHRTEAERRPLAPSEVAQHLMASAAAASGATHSATGGSGAHTMRQCTPKELATRSSKVVTLYDLAGHERYLKTTVLGMTRNMPDYACIVISANNGIQRMTKEHLALCLALKLPFFIVVTRIDSTPPNIHDETLSNIHKLLKIPTVRKLSYPVRRHDEVTLAAKNCAMIALPRSSKSATLPVLASLTYCNSLTYSRLGRTGGRRATCQRR | not soluble
GPGSMVAPAQRTSVYVGDLPIDLPRPEEAINNLFSTVAPVVSVKVCRDMATQRSLGYGYVNFQTTADAEKVIDALNYTGIAPGRQIRVMFSIRDPLQRKSGMNNVFVKKLDTAINAKELQAAFSKCGRVLSCKVALDSAGNSKGYGFVQFETADGTKAALEMNGSKLGDSEVVVAPFVRRVDREAMAAKSFRNIYIKNITASATEADVKAIVEEFGKVDSLFLSEHARFPTKFALVAFEEHQAAVQAIAALNESEESGLTEKAVKLVVCRALSKSERDREKKKAASLYQNHGRNLYIKHLPDDITDDRLREIFEPFGKITSCAIMKEPNGTLKGFAFVCFEDKQHASAALRSLNGHPLEHSAKPLYVSHAEQKDMRIRLLQQRRAAMRHQSRMAPLMNTFPQQWPRHPFPHMVPPMMPPPPPPNMGMPQFMSGPMIRRPVMEPHLMQGEPMRPPNRYTQAREQYPPQQRQDGVDMNYLSTLSPEQQKNYLGELLYSRILPLESSNAAKITGMLLEMSREEIFEILADHFALLSKIQEANAVLQQHTGN | soluble
GPGSMVNATPDMARYCCAVIHSKLRGEKTPEPPASITNEPSPIFVSLKTLDGDLRGCIGNFSAEPLHKQLRDYAVAAAFQDNRFPSVTLAELPMLSCSVCLLHSFEKAHRWDDWEIGVHGIRIRYKNYSATYLPSVMPEQRWDHIQAIRSLMRKAGCGEEVSDAILNELDVTRYQESKSTVAFKSANLGSLPC | soluble
GPGSMWAQQLSLQKQTTKISPADKDAQALITANVFIEGNRMRVLKSMEQYQAVADSAYWNYGYMGGSMVTTMAICLSLSGRLPLLQRYASWISLAGGYFGGKAALGIHNARNLSHVVNTIDSAIVETRKMDEQYNFKIPDYAREVEALQRRKFELLPTSAEAIEARKNDLNNMPLDEKVDALVEAYEKRRQAVGKE | not soluble
GPGYNEPQDKKTMMMNEEDDGNGMDELLAVLGYKVRSSEMADVAQKLEQLEVMMSNVQEDDLSQLATETVHYNPAELYTWLDSMLTDLNPPSSNAEYDLKAIPGDAILNQ | soluble
GPLGSPWYYGKVTRHQAEMALNERGHEGDFLIRDSESSPNDFSVSLKAQGKNKHFKVQLKETVYCIGQRKFSTMEELVEHYKKAPIFTSEQGEKLYLVKHLS | soluble
GPMGMQSIREQSCRVVTCKTCKYTHFKPKETCVSENHDFHWHNGVKRFFKCPCGNRTISLDRLPKKHCSTCGLFKWERVGMLKEKTGPKLGG | soluble
GPPGPPGPPGPPGPRGRTGPPGPPGPPGPP | soluble
GPSLSGELHIFCSVTAAYSHLPPILDRFRAEHPSVEIKLTTGDAADAMEKVVTGEADLAIAGKPETLPGAVAFSMLENLAVVLIAPALPCPVRNQVSADKPDWSTVPFIMADQGPVRRRIELWFRRNKISNPMIYATVGGHEAMV | not soluble
GPTSPGPALTDWARVREELASTGPPVVAMPVVIKTEGPAWTPLEPKLITRLADTVRTKGLRSPITMAEVEALMSSPLLPHDVTNLMRVILGPAPYALWMDAWGVQLQTVIAAATRDPRHPANGQGRGERTNLNRLKGLADGMVGNPQGQAALLRPGELVAITASALQAFREVARLA | soluble
GQGVSRSGALDLGALRSANRTVGNPSDMACVESVLGGLSFSCHGSAVIAITGAHTPVTITSASGLQWQASNYQPIELETGDRVSLGSPKAGLRSYLAIRGGFDVTPVLGSLSTDTLAQLGPEALATGDRLGFTAPVNGTSVSLNEAPAFELPTTANIVTLDVVMGPRTDWFTENAIQRLSSQLWRVTPQSNRVGIRLAGDTPLERSNHQELPSEGTSVGAIQVPASGQPVLFLADHPLTGGYPVIASVASHHLDLAGQIPVNAQIRFNPLGAFEEMQPSTEASFSTADAKNNS | not soluble
GQLQEPYETVTIDVEEQHQGPIMEKMGVRKAELTDMAPDGTGRIRMDFIMPSRGLIGFQTEFMTLTSGSGLIYHTFFEYGPHKGGEIGQRKNGVMIGNATGKALTNAIFNLQSRGRMLIGHGVDIYEG | not soluble
